For assay [1], the target named is TfR1 on human erythroleukemia TF-1 cells (human) (UniProt P02786). Description: cell-based or functional assay.
The target in assay [2] is TfR1 protein stably expressed on CHO-K1-TfR1 cells (UniProt P02786). Description: cell-based or functional assay.
Sequence of TfR1 protein stably expressed on CHO-K1-TfR1 cells (P02786 whole entry): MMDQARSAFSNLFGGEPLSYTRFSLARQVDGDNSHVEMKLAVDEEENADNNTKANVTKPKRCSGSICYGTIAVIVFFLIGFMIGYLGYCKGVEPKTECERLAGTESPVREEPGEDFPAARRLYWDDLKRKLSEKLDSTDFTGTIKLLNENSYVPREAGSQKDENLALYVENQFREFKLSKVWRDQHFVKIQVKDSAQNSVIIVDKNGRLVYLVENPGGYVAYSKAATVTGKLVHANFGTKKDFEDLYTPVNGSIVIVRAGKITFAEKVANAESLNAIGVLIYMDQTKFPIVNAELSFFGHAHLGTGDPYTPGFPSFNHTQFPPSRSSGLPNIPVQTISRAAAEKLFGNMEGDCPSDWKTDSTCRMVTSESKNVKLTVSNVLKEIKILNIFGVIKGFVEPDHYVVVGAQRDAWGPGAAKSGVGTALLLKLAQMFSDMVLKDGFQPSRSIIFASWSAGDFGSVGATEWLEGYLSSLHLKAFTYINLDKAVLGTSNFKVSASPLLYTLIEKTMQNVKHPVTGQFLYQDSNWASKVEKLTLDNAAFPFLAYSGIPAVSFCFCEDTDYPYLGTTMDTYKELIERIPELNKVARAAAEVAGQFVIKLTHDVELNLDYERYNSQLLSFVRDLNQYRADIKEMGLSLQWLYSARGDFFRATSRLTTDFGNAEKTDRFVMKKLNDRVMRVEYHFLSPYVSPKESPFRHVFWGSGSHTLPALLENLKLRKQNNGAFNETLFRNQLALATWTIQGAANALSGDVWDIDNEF

Sequence of Tab4, pabinafusp alfa targeting humanized TfR1 (antibody) (VH): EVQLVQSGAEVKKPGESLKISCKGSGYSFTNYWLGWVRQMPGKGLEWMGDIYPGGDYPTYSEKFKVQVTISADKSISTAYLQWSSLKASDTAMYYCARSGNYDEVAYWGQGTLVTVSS
Sequence of Tab4, pabinafusp alfa targeting humanized TfR1 (antibody) (VL): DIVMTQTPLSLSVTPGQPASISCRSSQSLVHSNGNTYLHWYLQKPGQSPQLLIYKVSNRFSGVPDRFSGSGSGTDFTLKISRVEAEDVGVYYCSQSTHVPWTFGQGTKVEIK
Sequence of TfR1 on human erythroleukemia TF-1 cells (human) (P02786 whole entry): as the sequence (P02786 whole entry) above

hIgG isotype control (antibody): in assay [1], the TF-1 cell internalization, fold (MFI at 37° C. to MFI at 4° C.) is 1.01 fold; the TF-1 cell internalization, pHrodo label, 4° C. MFI (background value) was found to be 471 MFI; the TF-1 cell internalization, pHrodo label, 37° C. MFI is 476 MFI. In assay [2], the CHO-K1-TfR1 internalization, fold (MFI at 37° C. to MFI at 4° C.) came out at 1.53 fold; the CHO-K1-TfR1 internalization, pHrodo label, 4° C. MFI (background value) came out at 464 MFI; the CHO-K1-TfR1 internalization, pHrodo label, 37° C. MFI was found to be 711 MFI.
In assay [1], “Tab4, pabinafusp alfa targeting humanized TfR1 (antibody)” gave a TF-1 cell internalization, fold (MFI at 37° C. to MFI at 4° C.) of 1.83 fold; a TF-1 cell internalization, pHrodo label, 4° C. MFI (background value) of 712 MFI; a TF-1 cell internalization, pHrodo label, 37° C. MFI of 1300 MFI. In assay [2], the CHO-K1-TfR1 internalization, fold (MFI at 37° C. to MFI at 4° C.) stood at 2.36 fold; the CHO-K1-TfR1 internalization, pHrodo label, 4° C. MFI (background value) is 520 MFI; the CHO-K1-TfR1 internalization, pHrodo label, 37° C. MFI is 1230 MFI.

Values taken from patent US20260217847A1.
